Source: the supplement of paper PMC10126150
± gives the standard deviation of the averaged measurements.

Tested on: ATP
Assay: switch fluorescence ratio, 500 uM ATP over buffer (Cy3 cluster intensity, sum of 5 cycles each) (fold (ratio)); higher = stronger signal-on switching upon ATP binding; sequences stand for … in TCGTCGGCAGCGTCAGATGTGTATAAGAGACAGTTTTTTTTTTTTTTTTTTTTTTTTT…TC
Conditions: aptamer strand: ATP DNA aptamer (quencher-CACCTGGGGGAGTATTGCGGAGGAAGG + anchor), 100 nM annealed; ATP concentration: 500 uM
Outline: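 Five buffer/ATP imaging cycles were run on Cy3-labelled switching-strand clusters on a modified Illumina MiSeq flow-cell, with NaOH stripping and re-annealing between cycles. In each cycle, clusters annealed to 100 nM quencher-labelled ATP aptamer were imaged in selection buffer, then after 15 min with 500 uM ATP at 22 °C. Per cluster, the fluorescence ratio is summed target-cycle over summed buffer-cycle Cy3 intensity, averaged per switch-domain sequence. Only clusters within 100-1000 RFU were kept.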
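Also: ATP exposure 15 min at 22 °C before imaging.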

Sequence	switch fluorescence ratio
TACCGGGTTT	0.9914 ± 0.0059
TACCGTGGGT	0.99 ± 0.021
TACCGTTGGG	1.01 ± 0.038
TACCTACTCG	1.18 ± 0.12
TACCTGGGTA	0.948 ± 0.028
TACCTGGTTT	1 ± 0.03
TACGAACTTT	1.31 ± 0.06
TACGAATTTT	1.02 ± 0.012
TACGAGTGCG	1.04 ± 0.06
TACGAGTTCT	0.984 ± 0.013
TACGATTTAA	1.01 ± 0.026
TACGCGGGCA	1.07 ± 0.11
TACGCGTAAT	1.012 ± 0.0052
TACGCTGACG	1.13 ± 0.087
TACGCTTATA	1.19 ± 0.042
TACGCTTCAT	1.02 ± 0.011
TACGGAAATG	1.0398 ± 0.00093
TACGGAAGGT	1.06 ± 0.034
TACGGAGGGT	1.22 ± 0.31
TACGGATCGT	0.974 ± 0.03
TACGGCGTAC	1.08 ± 0.051
TACGGCTTTT	1.01 ± 0.0062
TACGGGAGCC	1.01 ± 0.025
TACGGGAGGC	1.02 ± 0.032
TACGGGCGGC	1.05 ± 0.016
TACGGGCGGG	1.24 ± 0.17

Sequence	switch fluorescence ratio
TACGGGCTTT	1.03 ± 0.033
TACGGGGACA	1.07 ± 0.055
TACGGGGAT	1.84 ± 1.2
TACGGGGCCA	0.992 ± 0.01
TACGGGGGAA	1.26 ± 0.31
TACGGGTCGA	1.01 ± 0.016
TACGGGTTAG	1.031 ± 0.0034
TACGGGTTCG	0.99 ± 0.028
TACGGTCAGC	1.03 ± 0.016
TACGGTGCAG	0.981 ± 0.024
TACGGTGGTG	0.987 ± 0.018
TACGTACGCC	1.57 ± 0.073
TACGTATACT	1.39 ± 0.015
TACGTGTAGA	1.02 ± 0.056
TACGTTACTC	1.56 ± 0.018
TACGTTATTT	1.16 ± 0.027
TACGTTGCAT	1.05 ± 0.055
TACGTTTAAT	1.04 ± 0.031
TACTACACAC	1.406 ± 0.013
TACTACGTAA	2.27 ± 0.4
TACTACTATT	1.03 ± 0.016
TACTACTTGC	1.05 ± 0.0085
TACTAGAGCG	1.03 ± 0.04
TACTATGTTG	1.02 ± 0.065
TACTATTGGA	1.01 ± 0.021
TACTATTTTC	0.984 ± 0.042

Sequence	switch fluorescence ratio
TACTCACGAA	1.42 ± 0.027
TACTCATGAA	1.038 ± 0.0037
TACTCGTCTA	1.02 ± 0.018
TACTCTCGGT	1.035 ± 0.0057
TACTCTTTGT	1.015 ± 0.002
TACTGAATGG	0.997 ± 0.0051
TACTGCAATT	1.35 ± 0.22
TACTGCGGTC	0.998 ± 0.012
TACTGGAAGG	0.941 ± 0.019
TACTGGACTT	1.14 ± 0.033
TACTGGATGA	0.991 ± 0.029
TACTGGCTAA	1 ± 0.038
TACTGGGGAC	1.03 ± 0.035
TACTGGGGGA	1.07 ± 0.03
TACTGGGTCG	1.01 ± 0.043
TACTGTACTC	1.54 ± 0.035
TACTTAAAAC	1.011 ± 0.0078
TACTTACTAG	1.099 ± 0.01
TACTTAGGTT	0.98 ± 0.024
TACTTAGTGC	1.02 ± 0.045
TACTTGAGCG	1.02 ± 0.02
TACTTGCTTC	1.02 ± 0.038
TACTTGGAAC	1.04 ± 0.012
TACTTTATTA	1.019 ± 0.0035
TAGAAACGCG	0.983 ± 0.025
TAGAAATGAT	0.987 ± 0.033

Sequence	switch fluorescence ratio
TAGAAATTGG	1.03 ± 0.03
TAGAACGTCG	0.98 ± 0.031
TAGAAGACAG	0.996 ± 0.025
TAGAAGCCGG	0.98897 ± 0.00029
TAGAAGGGCC	0.976 ± 0.02
TAGAAGGTGG	1.04 ± 0.073
TAGAATCAGG	1.055 ± 0.0011
TAGAATCCG	1.003 ± 0.009
TAGAATTATC	1.017 ± 0.0056
TAGAATTGGT	0.983 ± 0.016
TAGACAAAAA	1.08 ± 0.12
TAGACATCCA	1.048 ± 0.0045
TAGACGCTCA	1.105 ± 0.0057
TAGACGGGCT	0.9797 ± 0.0025
TAGACTATGG	1.04 ± 0.023
TAGACTGGTT	0.992 ± 0.018
TAGACTTTGG	0.968 ± 0.025
TAGAGACGGA	1.0278 ± 0.001
TAGAGATCTG	0.996 ± 0.014
TAGAGCTGCA	1.02 ± 0.026
TAGAGCTTAG	0.9812 ± 0.0037
TAGAGGAG	1.01 ± 0.05
TAGAGGATGC	0.998 ± 0.07
TAGAGGCGAA	1 ± 0.011
TAGAGGCGTT	0.986 ± 0.012
TAGAGGGGCA	0.979 ± 0.011

Sequence	switch fluorescence ratio
TAGAGGGGGT	0.998 ± 0.039
TAGAGGTGGG	1.21 ± 0.34
TAGAGTGATG	0.943 ± 0.013
TAGAGTTCTC	1.01 ± 0.013
TAGAGTTTTA	0.972 ± 0.022
TAGATAGAAC	0.976 ± 0.054
TAGATCCTTT	1.03 ± 0.027
TAGATCGAAC	1.02 ± 0.024
TAGATGCGGT	1.01 ± 0.032
TAGATGTTTA	1.32 ± 0.6
TAGATGTTTT	0.986 ± 0.035
TAGATTGTAA	1.05 ± 0.11
TAGATTGTTT	0.998 ± 0.021
TAGATTTCTG	0.989 ± 0.025
TAGCAGTCAA	1.02 ± 0.02
TAGCCAAGGG	0.994 ± 0.053
TAGCCCGGTG	1.47 ± 0.53
TAGCCCTTTT	0.973 ± 0.01
TAGCGAAGTG	0.929 ± 0.061
TAGCGAGCGC	0.988 ± 0.068
TAGCGCGGGA	1 ± 0.016
TAGCGGCGTC	1 ± 0.098
TAGCGGGCGC	0.986 ± 0.032
TAGCGGGGAC	1.07 ± 0.037
TAGCGGGGCG	0.9881 ± 0.0061
TAGCGGGGGC	1.02 ± 0.05

Sequence	switch fluorescence ratio
TAGCGGGTTC	1.055 ± 0.0048
TAGCGGTCTC	1.03 ± 0.032
TAGCGTAGAA	0.993 ± 0.046
TAGCTAAATT	0.99 ± 0.012
TAGCTAATCC	1.08 ± 0.015
TAGCTAGGTG	1.62 ± 0.05
TAGCTCGGCT	0.95364 ± 0.00022
TAGCTCGGGC	1.03 ± 0.019
TAGCTCTAGT	1.016 ± 0.0044
TAGCTGATGT	1.03 ± 0.02
TAGCTTGTGG	0.9912 ± 0.0062
TAGGAAAAAT	1.09 ± 0.19
TAGGAAAGTG	1.03 ± 0.054
TAGGAACAGC	0.98 ± 0.012
TAGGAATCCA	0.999 ± 0.012
TAGGACCAGC	0.98 ± 0.012
TAGGACGTGC	0.9627 ± 0.0032
TAGGACTAGA	0.9597 ± 0.0039
TAGGAGCGAT	1.15 ± 0.031
TAGGAGGGCT	0.985 ± 0.049
TAGGAGGGGT	0.999 ± 0.022
TAGGAGGTCC	0.96 ± 0.081
TAGGAGGTGG	1.03 ± 0.041
